Measurements: article doi:10.1101/2021.03.16.435520 (bioRxiv, 2021)

Target: the molecule itself
Assay: cross-linking

B1: IRE1-KR-R887A, unphosphorylated (domain or fragment)
chain: GSSPSLEQDDGDEETSVVIVGKISFCPKDVLGHGAEGTIVYRGMFDNRDVAVKRILPECFSFADREVQLLRESDEHPNVIRYFCTEKDRQFQYIAIELCAATLQEYVEQKDFAHLGLEPITLLQQTTSGLAHLHSLNIVHRDLKPHNILISMPNAHGKIKAMISDFGLCKKLAVGRHSFSRRSGVPGTEGWIAPEMLSEDCKENPTYTVDIFSAGCVFYYVISEGSHPFGKSLQRQANILLGACSLDCLHPEKHEDVIARELIEKMIAMDPQKRPSAKHVLKHPFFWSLEKQLQFFQDVSDRIEKESLDGPIVKQLERGGRAVVKMDWRENITVPLQTDLAKFRTYKGGSVRDLLRAMRNKKHHYRELPAEVRETLGSLPDDFVCYFTSRFPHLLAHTYRAMELCSHERLFQPYYFHEPPEPQPPVTPDAL
- stoichiometry N: 2
